Experimental data: article PMC13538652

Biological target: T1, GZF1-Flag (UniProt Q4VBD9 1-706)
T1 sequence: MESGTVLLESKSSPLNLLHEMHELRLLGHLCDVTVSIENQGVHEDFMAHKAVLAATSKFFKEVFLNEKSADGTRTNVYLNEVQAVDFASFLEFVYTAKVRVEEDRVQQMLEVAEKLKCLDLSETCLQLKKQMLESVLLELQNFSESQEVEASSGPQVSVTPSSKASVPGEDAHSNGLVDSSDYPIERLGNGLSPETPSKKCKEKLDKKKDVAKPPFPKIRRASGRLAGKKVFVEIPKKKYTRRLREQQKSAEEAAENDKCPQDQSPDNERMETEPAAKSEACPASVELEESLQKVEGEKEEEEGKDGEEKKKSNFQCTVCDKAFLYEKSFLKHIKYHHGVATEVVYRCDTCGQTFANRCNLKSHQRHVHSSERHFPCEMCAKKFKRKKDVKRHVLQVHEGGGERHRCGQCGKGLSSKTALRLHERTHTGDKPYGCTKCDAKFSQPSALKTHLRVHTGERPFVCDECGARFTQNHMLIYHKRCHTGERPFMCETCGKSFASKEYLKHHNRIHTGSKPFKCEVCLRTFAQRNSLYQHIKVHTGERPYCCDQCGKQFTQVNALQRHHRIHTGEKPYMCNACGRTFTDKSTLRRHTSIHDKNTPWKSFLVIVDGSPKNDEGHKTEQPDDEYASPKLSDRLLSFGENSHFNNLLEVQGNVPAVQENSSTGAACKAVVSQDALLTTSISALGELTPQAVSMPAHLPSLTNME
Test: PBM

GAGGCCATTACGGTAATGCCTCCTGGCATTACCGTAATGGCCTCACACTC (structured_DNA) [Gzf1_bs_unmethylated]
binding result: binds
